Test results from article doi:10.1101/2021.11.08.467681 (bioRxiv, 2021).

B1: FtsA WT (natural protein)
chain: MIKATDRKLVVGLEIGTAKVAALVGEVLPDGMVNIIGVGSCPSRGMDKGGVNDLESVVKCVQRAIDQAELMADCQISSVYLALSGKHISCQNEIGMVPISEEEVTQEDVENVVHTAKSVRVRDEHRVLHVIPQEYAIDYQEGIKNPVGLSGVRMQAKVHLITCHNDMAKNIVKAVERCGLKVDQLIFAGLASSYSVLTEDERELGVCVVDIGGGTMDIAVYTGGALRHTKVIPYAGNVVTSDIAYAFGTPPSDAEAIKVRHGCALGSIVGKDESVEVPSVGGRPPRSLQRQTLAEVIEPRYTELLNLVNEEILQLQEKLRQQGVKHHLAAGIVLTGGAAQIEGLAACAQRVFHTQVRIGAPLNITGLTDYAQEPYYSTAVGLLHYGKESHLNGEAEVEKRVTASVGSWIKRLNSWLRKEF
B2: FtsA WT(1-405)-6xHis (domain or fragment)
chain: MIKATDRKLVVGLEIGTAKVAALVGEVLPDGMVNIIGVGSCPSRGMDKGGVNDLESVVKCVQRAIDQAELMADCQISSVYLALSGKHISCQNEIGMVPISEEEVTQEDVENVVHTAKSVRVRDEHRVLHVIPQEYAIDYQEGIKNPVGLSGVRMQAKVHLITCHNDMAKNIVKAVERCGLKVDQLIFAGLASSYSVLTEDERELGVCVVDIGGGTMDIAVYTGGALRHTKVIPYAGNVVTSDIAYAFGTPPSDAEAIKVRHGCALGSIVGKDESVEVPSVGGRPPRSLQRQTLAEVIEPRYTELLNLVNEEILQLQEKLRQQGVKHHLAAGIVLTGGAAQIEGLAACAQRVFHTQVRIGAPLNITGLTDYAQEPYYSTAVGLLHYGKESHLNGEAEVEKRVTASV
B3: FtsA R286W (1-405)-6xHis (domain or fragment)
chain: MIKATDRKLVVGLEIGTAKVAALVGEVLPDGMVNIIGVGSCPSRGMDKGGVNDLESVVKCVQRAIDQAELMADCQISSVYLALSGKHISCQNEIGMVPISEEEVTQEDVENVVHTAKSVRVRDEHRVLHVIPQEYAIDYQEGIKNPVGLSGVRMQAKVHLITCHNDMAKNIVKAVERCGLKVDQLIFAGLASSYSVLTEDERELGVCVVDIGGGTMDIAVYTGGALRHTKVIPYAGNVVTSDIAYAFGTPPSDAEAIKVRHGCALGSIVGKDESVEVPSVGGRPPWSLQRQTLAEVIEPRYTELLNLVNEEILQLQEKLRQQGVKHHLAAGIVLTGGAAQIEGLAACAQRVFHTQVRIGAPLNITGLTDYAQEPYYSTAVGLLHYGKESHLNGEAEVEKRVTASV

Biological target: the molecule itself
Assay: FRET or BRET

| Protein | binding result |
| --- | --- |
| B1 | binds |
| B2 | binds |
| B3 | binds |
